The values below come from publication PMC5451165, “Cellular levels of Grb2 and cytoskeleton stability are correlated in a neurodegenerative scenario” (Disease Models & Mechanisms, 2017).

What all share (details): partners not purified
In one assay the target is T1, Grb2-DsRed construct (UniProt P62993 1-217).
T1 construct: Grb2 cloned into a DsRed-C1 vector; In the transfected cells endogenous Grb2 is present too, and the anti-Grb2 antibody would precipitate both; A C1 vector usually places the fluorescent protein at the N-terminus; source: SHSY-5Y, transiently transfected, in lysate
T1 sequence (P62993 whole entry): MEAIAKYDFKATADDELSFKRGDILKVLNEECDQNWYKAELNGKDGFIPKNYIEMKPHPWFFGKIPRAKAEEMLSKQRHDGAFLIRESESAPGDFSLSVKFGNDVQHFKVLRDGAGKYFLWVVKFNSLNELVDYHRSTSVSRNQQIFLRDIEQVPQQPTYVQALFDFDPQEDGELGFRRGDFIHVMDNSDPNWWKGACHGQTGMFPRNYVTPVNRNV
Nature of the assay: co-IP; IP for Grb2 from cell lysate, blot with anti-NOX4 (reverse: IP for NOX4, blot with anti-Grb2); cells under control (GFP, DMSO, DsRed), AD-inducing (AICD, Aβ, DsRed), reversal (AICD, Aβ, Grb2-DsRed) and Grb2 knock-down (U6-Grb2) conditions.

The target in assay [1] is T2, Growth factor receptor bound protein 2 (Grb2), endogenous in SHSY-5Y cells (human (endogenous in SHSY-5Y), UniProt P62993 1-217).
T2 construct: Grb2, endogenous in human neuroblastoma SHSY-5Y cells, precipitated with an anti-Grb2 antibody; source: endogenous, SHSY-5Y cell lysate
T2 sequence (P62993 whole entry): as above
The assay is described as above.

Assay [2] deals with T3, Grb2, endogenous in mouse brain (mouse (endogenous in mouse brain), UniProt Q60631 1-217).
T3 construct: Grb2, endogenous in mouse brain (APP/PS1 and WT mice), precipitated with an anti-Grb2 antibody; source: endogenous, protein extracted from paraffin-embedded brain sections of APP/PS1 (AD) and WT mice
T3 sequence (Q60631 whole entry): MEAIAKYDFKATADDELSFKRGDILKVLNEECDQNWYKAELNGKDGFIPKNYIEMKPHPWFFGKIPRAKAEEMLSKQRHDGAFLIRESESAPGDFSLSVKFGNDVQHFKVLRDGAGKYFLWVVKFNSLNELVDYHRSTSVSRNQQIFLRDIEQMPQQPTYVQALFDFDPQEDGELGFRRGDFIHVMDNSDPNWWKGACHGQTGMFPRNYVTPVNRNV
Briefly: co-IP; Grb2 pull down from protein extracted from paraffinized brain sections of AD (APP/PS1) and WT mice, probed with anti-NOX4 antibody.

B1: NOX4, endogenous in SHSY-5Y cells (natural protein, human (endogenous in SHSY-5Y), UniProt Q9NPH5 1-578, looked up)
chain: MAVSWRSWLANEGVKHLCLFIWLSMNVLLFWKTFLLYNQGPEYHYLHQMLGLGLCLSRASASVLNLNCSLILLPMCRTLLAYLRGSQKVPSRRTRRLLDKSRTFHITCGVTICIFSGVHVAAHLVNALNFSVNYSEDFVELNAARYRDEDPRKLLFTTVPGLTGVCMVVVLFLMITASTYAIRVSNYDIFWYTHNLFFVFYMLLTLHVSGGLLKYQTNLDTHPPGCISLNRTSSQNISLPEYFSEHFHEPFPEGFSKPAEFTQHKFVKICMEEPRFQANFPQTWLWISGPLCLYCAERLYRYIRSNKPVTIISVMSHPSDVMEIRMVKENFKARPGQYITLHCPSVSALENHPFTLTMCPTETKATFGVHLKIVGDWTERFRDLLLPPSSQDSEILPFIQSRNYPKLYIDGPFGSPFEESLNYEVSLCVAGGIGVTPFASILNTLLDDWKPYKLRRLYFIWVCRDIQSFRWFADLLCMLHNKFWQENRPDYVNIQLYLSQTDGIQKIIGEKYHALNSRLFIGRPRWKLLFDEIAKYNRGKTVGVFCCGPNSLSKTLHKLSNQNNSYGTRFEYNKESFS
notes: NOX4, endogenous in human neuroblastoma SHSY-5Y cells, detected with an anti-NOX4 antibody; source: endogenous, SHSY-5Y cell lysate
Consider B1, for which the “fold change of the co-precipitated interaction, reversal condition (AICD + Aβ + Grb2-DsRed) relative to control” value in the assay with Grb2-DsRed construct came out at 2.18 fold. Besides, the “fold change of the co-precipitated interaction, AD conditions (AICD + Aβ) relative to control” value in assay [1] was 1.42 fold.

B2: NOX4, endogenous in mouse brain (natural protein, mouse (endogenous in mouse brain), UniProt Q9JHI8 1-578, looked up)
chain: MAVSWRSWLANEGVKHLCLLIWLSLNVLLFWKTFLLYNQGPEYYYIHQMLGLGLCLSRASASVLNLNCSLILLPMCRTVLAYLRGSQKVPSRRTRRLLDKSKTLHITCGVTICIFSGVHVAAHLVNALNFSVNYSEDFLELNAARYQNEDPRKLLFTTIPGLTGVCMVVVLFLMVTASTYAIRVSNYDIFWYTHNLFFVFYMLLLLHVSGGLLKYQTNVDTHPPGCISLNQTSSQNMSIPDYVSEHFHGSLPRGFSKLEDRYQKTLVKICLEEPKFQAHFPQTWIWISGPLCLYCAERLYRCIRSNKPVTIISVINHPSDVMELRMIKENFKARPGQYIILHCPSVSALENHPFTLTMCPTETKATFGVHFKVVGDWTERFRDLLLPPSSQDSEILPFIHSRNYPKLYIDGPFGSPFEESLNYEVSLCVAGGIGVTPFASILNTLLDDWKPYKLRRLYFIWVCRDIQSFQWFADLLCVLHNKFWQENRPDFVNIQLYLSQTDGIQKIIGEKYHTLNSRLFIGRPRWKLLFDEIAKCNRGKTVGVFCCGPSSISKTLHSLSNRNNSYGTKFEYNKESFS
notes: NOX4, endogenous in mouse brain (APP/PS1 and WT mice), detected with an anti-NOX4 antibody; source: endogenous, protein extracted from paraffin-embedded brain sections of APP/PS1 (AD) and WT mice
As for B2, in assay [2], the “fold change of the co-precipitated interaction, AD mouse brain relative to wild type” value is 1.49 fold.
